This is an account of results in article PMC11108154.

Several values for one entry are separate records, joined by “and”; a condition that tells them apart may be missing. Equal values may be shown once.

Experiment [1] has as its target AMP-glucagon (generic synthetic glucagon for injection, Amphastar Pharmaceuticals) (UniProt P01275). In words: SEC; SEC-HPLC of expired lots (end of shelf life); Phenomenex Yarra 3 um SEC-2000, isocratic 55% 0.1% TFA / 45% acetonitrile, 1.000 mL/min, ambient temperature, UV 214 nm; reconstituted with the included diluent and tested immediately; monomer and dimer told by a calibration curve. On the technique in general: SEC sorts molecules by how far they enter the pores of the column.

Experiment [2] concerns the target ELI-glucagon (Eli Lilly's Glucagon, recombinant, reference listed drug) (UniProt P01275). Description: SEC; SEC-HPLC of recently released lots; Phenomenex Yarra 3 um SEC-2000, isocratic 55% 0.1% TFA / 45% acetonitrile, 1.000 mL/min, ambient temperature, UV 214 nm; reconstituted with the included diluent and tested immediately; monomer and dimer told by a calibration curve.

The target is the same in experiment [3]. Description: SEC; SEC-HPLC of expired lots (end of shelf life); Phenomenex Yarra 3 um SEC-2000, isocratic 55% 0.1% TFA / 45% acetonitrile, 1.000 mL/min, ambient temperature, UV 214 nm; reconstituted with the included diluent and tested immediately; monomer and dimer told by a calibration curve.

Consider “AMP-glucagon (generic synthetic glucagon for injection, Amphastar Pharmaceuticals) (from UniProt P01275 53-81) (peptide)”, for which, in experiment [1], the % Dimer by SEC-HPLC was 0.062% and 0.08% and 0.115%; the stoichiometry N was 2.
For “ELI-glucagon (Eli Lilly's Glucagon, recombinant, reference listed drug) (from UniProt P01275 53-81) (peptide)”, in experiment [2], the % Dimer by SEC-HPLC was 0.04% and 0.042% and 0.038%; the stoichiometry N is 2. Besides, in experiment [3], the % Dimer by SEC-HPLC is 0.133% and 0.097% and 0.144%; the stoichiometry N was found to be 2.

In general, stoichiometry N refers to a count of units in the complex or per binding partner.
